Source: PMC12375889 (Febs Letters, 2025)

Experiments:
native MS = molecular target: the molecule itself; experiment: native MS
SEC = molecular target: the molecule itself; experiment: SEC

B1: MvoDUF2193 (natural protein, Methanococcus voltae strain A3, UniProt D7DSA4 1-499, looked up)
chain: MKELYEKMINEAMAAQWADVEVIKAKRGTKYKLTDGKPYVDAVQKMEAIGDQCSEVFDLHKNSVKIHYDTLCDLTDTVRPEDDPFVEHYQTPAILEILYNEDPKFREAVEKFIDSVEKNSALIGKEVVRRYGGFYGPTCVVDFALIPGSTSNIVNQILRKTDISEHYKQAILASKSWGMNTSYGIGDKFAHAVEDGKTLEEAIDEEIKTIKMIYDTPIQAQAKLMEEAGHTSFDVLKYMQDYKKKMESTVKKAIDADVNYANIVTVPAYCVGDISHHIAQSTYNMCKDDVIMAIIEATSKVMDNTLRNNIDKYKSEFDVLSLATGSTAAAVEYILELDGFNAPTVVQLLTRRFHNYVQLYPKRGAAAELHNCDFMDMIYRGWKTLDKARRMKNGSGTKLMPMVNDMPVDLDPIAENEVIMNPQRYAYPACAITVRFSSLMRLSDYPCLLTSEPVTATMMTNAIALHKNNPGAPARVCKKCASSCLVDFRHEYCQWRESV
For B1, the “stoichiometry N” value (native MS) was 2 and the “stoichiometry N” value (SEC) was 4.
